The source of these data is a protein production outcome set (Wang et al. 2014).

A short description of this data set: label from the status in PepcDB records.
Consider “MKPIDEELLLEQLIDNVKNCKDLEAAKALLFEICGHDAILEKAVDYCIFCHEGQFRKSGEPYAVHPILVATLVGFLSENKSNILAALLHDVIEDTNCTEEELREQFGSEVLKLVLGLTKIIEIREDNLISSKSKKSLTKSALTFRNMLLASIEDVGVLIVKLCDRLHNMLTLDILREDKQKRISEETLVVYAPIAHRLGISSIKNYLEDLSFKYLMPDEYKLIDNYINSNNQEMQLGLNEFISKIELLFLSNGFRQGSFEIQKRIKHSYSIYLKMQRKGIGIEEVLDLLGVRILVEKVSDCYLALGILHTHFNPLVSRFKDYIALPKQNGYQTIHTTLFDAKSIIEAQIRTFDMHKIAEFGIAAHWKYKEDGSVVAPRLDWLTDISMQSINNLENAEDYNAIELYEYAKDSLYVEDVAVYSPKGEIFTLPRGATVLDFAYEVHTKVGLHAKSAYVNRIKVPLLTELKNGDIVRVVTSNDKFYRCSWIDSVKTGKAKASIREFCKQKIREINLASSINMLSFIFGVDKNRIETWIEKENLVRRIRQVATDSAYLKDIVNGLKKYAKKSYWFDKYEIKEQKIGNFTLYCNHKIANVDFDFCCHPKRGDAVLAFVKGGNAIVHHKLCDRADKMIDNNQDMVFIKWDSNIPKSYKLIFSLENKKGVLAEFLAFLAKMQINLLTINLSSDLNSAVDYFEITMEIPDNINPDSVKDRLKSRCKILDFTSLNDAYKES”, for which the protein production result was “failed”. The result for “MKPIHVGLLGLGTVGGGTLTVLRRNAEEITRRAGREIRVVRAAVRNLDKAEALAGGLPLTTNPFDVVDDPEIDIVVELIGGLEPARELVMQAIANGKHVVTANKHLVAKYGNEIFAAAQAKGVMVTFEAAVAGGIPIIKALREGLTANRIEWLAGIINGTSNFILSEMRDKGAAFDDVLKEAQRLGYAEADPTFDIEGIDAAHKLTILSAIAFGIPMQFERAYTEGISQLTREDVRYAEELGYRIKLLGIARRAENGIELRVHPTLIPERRLIANVDGAMNAVLVKGDAVGPTLYYGAGAGSEPTASAVVADLVDVTRLHTADPHHRVPHLAFQPDQLADTPILPMEAVRTAYYLRLRAFDRPGVLADITRILADSSISIDAMVQKEPAEGEEQVDIILLTHVTLEKNVNAAIAKIEALDAVAGKVMRIRLEDLGAK” reads “not failed”; that for “MKPLHLKLNNFGPFLKEEIDFSKIDNNELFLISGKTGSGKTMIFDAMTYALFGKASTEQREENDLRSHFADGKQPMSVTFEFQLNHRIYKVHRQGPYIKEGNTTKTNAKFDVFEMVDGKYEIRESKVISGTQFIIELLGVNADQFRQLFILPQGEFKRFLISNSREKQGILRTLFDSEKFEAIREILKEELKKEKAQIENRYQQIDLLWQEIESFDDDKIKGLLELAT”, “failed”; that for “MKPLKEVVGAYLALSDAQRQLVAGEYDEAAANCRRAMEISHTMPPEEAFDHAGFDAFCHAGLAEALAGLRSFDEALHSADKALHYFNRRGELNQDEGKLWISAVYSRALALDGLGRGAEAMPEFKKVVEMIEERKGETPGKERMMEVAIDRIAQLGAS”, “not failed”. In the case of “MKPSLRIYRYPPPPSQRTPCALTIGNFDGVHLGHQAILARVRQEARARGLVPAVMTFEPHPREYFATLNRRPELAPTRISGLRDKLQALAAAGIEQVAVERFDARLAEMSANAFIEDLLVAGLQTRWLLVGEDFRYGHKRSGDIDLLREAGLAHGFEVCTLADITDRQGHRISSSEVRTALAVGDLDRAAQLLGQPFHISGHVIHGRKLGRELGFPTMNLRVAPRCATRSGIYVVRVLGLQDRPLPAVASLGVRPTVEDRGRVLLEAHLLDESLDAYGKLVRVEFLHKLRDEEKFADLPSLTAAIAQDAQNARAYFAVHGL” it was “failed”; in that of “MKPSVSITGEQEAHKVAAIFETETDANGVARVLSQETSLDHEQVIVVSPQDQHPGEELEPENQGIWQTLVRSHLWLGIGGAVAGFIVFLILSAIGVGFIAQNGVVAAAVLAALGLILGLLVAGGVTLRPDHTPYVAKAQSALKEGKYVLTVHASSSEQLKEATTVLKNRNVRLVRTI”, “failed”. The result for “MKPVKPPRINGRVPVLSAQEAVNYIPDEATLCVLGAGGGILEATTLITALADKYKQTQTPRNLSIISPTGLGDRADRGISPLAQEGLVKWALCGHWGQSPRISDLAEQNKIIAYNYPQGVLTQTLRAAAAHQPGIISDIGIGTFVDPRQQGGKLNEVTKEDLIKLVEFDNKEYLYYKAIAPDIAFIRATTCDSEGYATFEDEVMYLDALVIAQAVHNNGGIVMMQVQKMVKKATLHPKSVRIPGYLVDIVVVDPDQSQLYGGAPVNRFISGDFTLDDSTKLSLPLNQRKLVARRALFEMRKGAVGNVGVGIADGIGLVAREEGCADDFILTVETGPIGGITSQGIAFGANVNTRAILDMTSQFDFYHGGGLDVCYLSFAEVDQHGNVGVHKFNGKIMGTGGFIDISATSKKIIFCGTLTAGSLKTEIADGKLNIVQEGRVKKFIRELPEITFSGKIALERGLDVRYITERAVFTLKEDGLHLIEIAPGVDLQKDILDKMDFTPVISPELKLMDERLFIDAAMGFVLPEAAH” reads “not failed”; that for “MKPVKVGICGLGTVGGGTFNVLERNAEEIARRAGRGIEVAQIAARRPNPKCDTGATPITADIFDVACNPEIDVVVELIGGYTLAHELVLKAIENGKHVVTANKALIAVHGNEIFAKAREKGVIVAFEAAVAGGIPVIKAIREGLSANRINWLAGIINGTGNFILSEMREKGRTFPDVLAEAQALGYAEADPTFDVEGIDAAHKLTILASIAFGIPLQFDKAYTEGISKLTSADVNYADALGYRIKHLGVARRTESGFELRVHPTLIPSDRLIANVNGVMNAVMVNGDAVGSTLYYGAGAGMEPTASSVVADLVDVVRAMTSDPENRVPHLAFQPDALSDHPILPIEACESAYYLRIQAKDHPGVLAQVATILSERGINIESIMQKEAEEQDGLVPMILVTHRVIEQRINDAIAALEALEGVSGPVVRIRVEQL”, “not failed”.

As to “MKQESPRLENTTPVEEKMTRSLLDHLTRLKPTRLVIFTSVFLSCLLLSLGFVFLQPATYQSYATLLTVAKTAIDQASREADIQHVAIQKQVLLGSELLTETADRLRKGDDAEAGINLTHAAIRDMLDVRPVDDTNLVEMVAEGNEPGLLPRLINTWIDVYLDARSAEIARSKGSTVEMMQEELVALTEKIQQKRLELEQFRQHNEIVSTERQDNEALARLKGLTDSLNKASEEEVKAKARLDTIRKSIERGQIVVPNEDTRTLSALERRAQELREQLEELDRQYTREYMALSPDLKVIPDKLRALEDEIQHIRRKGQTVVVSDAEQEYAAARQATRSIQEQLDQHRKKAAEFTARFTEHDALKSDLEELEQLYRDTQARLAQIEAQHTGKYPYVDVIERAFLPHHPIGPDYLWNAMIATLASLLLGLTAIWILEFLMHKEQEKLAIHLSGIHLHNQDNLPHSAFDVLPSTSVNLPRQPAQALEHTSMNGLTPQQIATLFQTANIREKQLLLLLLSGLTPDEITHLQQDDIDLEHNSLTVRSVPARTIPLHPVLAALYGKYGHCLTDPAGNRLNQEELEALLICLQIDADLSADNQISAEILRQTYILYLVRQGIRLGDLESVTGYISPTELSGYGTYAPAGTRYPVESVNLFYPIDYKQDV”, the protein production entry is given as “failed”. The result for “MKQIRLLAQYYVDLMMKLGLVRFSMLLALALVVLAIVVQMAVTMVLHGQVESIDVIRSIFFGLLITPWAVYFLSVVVEQLEESRQRLSRLVQKLEEMRERDLSLNVQLKDNIAQL” reads “not failed”. In the case of “MKQKFSSLFVLLVLLLTGLQVSAQSTPKPFDIEQPSLRVFLPAPELATGRAVVACPGGGYSGLAVNHEGYDWAPYFNKQGIALIVLKYRMPKGDRTLPISDAEAAMKMVRDSADVWNLNPNDIGIMGSSAGGHLASTIATHAPEALRPNFQILFYPVITMDKSFTHMGSHDNLLGKDASADLEKEFSNEKQVTKETPRAFIVYSDDDKVVPPANGVNYYLALNKKGVPSVLHIYPTGGHGWGIREDFLYKSEMQNELTSWLRSFKAPRKDAVRVACIGNSITFGAGIRNRSRDSYPSVLARMLGDSYWVKNFGVSARTMLNKGDHPYMNEPAYKNALAFNPNIVVIKLGTNDSKSFNWKYKADFMKDAQTMIDAFKGLPSQPKIYLCYPSKAYLTGDGINDDIISKEIIPMIKKLAKKNDLSVIDLHTAMDGMPELFPDRIHPNEKGAQVMAKAVYQSISTLK” it was “failed”.
